This is an account of results in doi:10.1101/2021.10.21.465318.

Like-named read-outs stand apart in the source and are kept apart here.

Experiment in all cases: FRET
Data set [1] addresses T1, HsMSH2;HsMSH3 (sortase/Cy3) (Homo sapiens;Homo sapiens, UniProt P43246;P20585 1-934;1-1137, |).
The target of data set [2] is T2, HsMSH2;HsMSH6 (sortase/Cy3) (Homo sapiens;Homo sapiens, UniProt P43246;P52701 1-934;1-1360, |).
Data set [3] concerns the target T1, HsMSH2;HsMSH3 (sortase/Cy3). This is another data set of the same source.
Data set [4] addresses T2, HsMSH2;HsMSH6 (sortase/Cy3). The source holds these as a separate data set.
The target of data set [5] is T1, HsMSH2;HsMSH3 (sortase/Cy3). The source holds these as a separate data set.
Data set [6] concerns the target T2, HsMSH2;HsMSH6 (sortase/Cy3). This is another data set of the same source.

B1: 41-mer G/T Cy5 (dsDNA)
DNA 1: GCTTAGGATCATCGAGGATCGAGCTCGGTGCAATTCAGCGG
DNA 2: CCGCTGAATTGCACCGAGCTTGATCCTGCATGATCCTAAGC
modifications: amino-C6 dT at position 12 of top strand
B1: the binding result in data set [1] is reported as “no binding”; in data set [2], “binds”.

B2: 41-mer G/+(CA)4 Cy5 (dsDNA)
DNA 1: GCTTAGGATCATCGAGGATCGAGCTCGGTGCAATTCAGCGG
DNA 2: CCGCTGAATTGCACCGAGCTCACACACACGATCCTCGATGATCCTAAGC
modifications: amino-C6 dT at position 12 of top strand
In the case of B2, the binding result in data set [3] and in data set [4] was “binds” throughout.

B3: 41-mer G/C Cy5 (dsDNA)
DNA 1: GCTTAGGATCATCGAGGATCGAGCTCGGTGCAATTCAGCGG
DNA 2: CCGCTGAATTGCACCGAGCTCGATCCTCGATGATCCTAAGC
modifications: amino-C6 dT at position 12 of top strand
For the molecule B3, the binding result in data set [5] and in data set [6] was “no binding” each time.
